Test results as given in patent US20170007671A1.

Target: Neuregulin-1 receptors (ErbB3 or ErbB4) on MCF-7 human breast cancer cells
Test: cell-based or functional assay

B1: recombinant human Neuregulin-1 (rhNRG-1) (ligand)
chain: SHLVKCAEKEKTFCVNGGECFMVKDLSNPSRYLCKCPNEFTGDRCQNYVMASFYKAEELYQ
For B1, the Biological activity; ErbB2 phosphorylation ELISA on MCF-7 cell lysates; Reference Sample (0 g/L HSA) was 1500 U, the Biological activity; ErbB2 phosphorylation ELISA on MCF-7 cell lysates; Sample A (0.5 g/L HSA) was 1730 U and the Biological activity; ErbB2 phosphorylation ELISA on MCF-7 cell lysates; Sample B (2 g/L HSA) was 3500 U. For the same binder, the Biological activity; ErbB2 phosphorylation ELISA on MCF-7 cell lysates; Sample C (8 g/L HSA) was 4000 U, the EC50 value; ErbB2 phosphorylation ELISA on MCF-7 cell lysates; Reference Sample (0 g/L HSA) was 0.0505 and the EC50 value; ErbB2 phosphorylation ELISA on MCF-7 cell lysates; Sample A (0.5 g/L HSA) was 0.0439. For the same binder, the EC50 value; ErbB2 phosphorylation ELISA on MCF-7 cell lysates; Sample B (2 g/L HSA) was 0.0217, the EC50 value; ErbB2 phosphorylation ELISA on MCF-7 cell lysates; Sample C (8 g/L HSA) was 0.0189 and the OD50 value; ErbB2 phosphorylation ELISA on MCF-7 cell lysates; Reference Sample (0 g/L HSA) was 0.391 OD. The OD50 value; ErbB2 phosphorylation ELISA on MCF-7 cell lysates; Sample A (0.5 g/L HSA) was 0.393 OD, the OD50 value; ErbB2 phosphorylation ELISA on MCF-7 cell lysates; Sample B (2 g/L HSA) was 0.406 OD and the OD50 value; ErbB2 phosphorylation ELISA on MCF-7 cell lysates; Sample C (8 g/L HSA) was 0.424 OD. It also gave a Standard sample EC50/sample EC50; ErbB2 phosphorylation ELISA on MCF-7 cell lysates; Sample A (0.5 g/L HSA) against Reference Sample of 1.15, a Standard sample EC50/sample EC50; ErbB2 phosphorylation ELISA on MCF-7 cell lysates; Sample B (2 g/L HSA) against Reference Sample of 2.33 and a Standard sample EC50/sample EC50; ErbB2 phosphorylation ELISA on MCF-7 cell lysates; Sample C (8 g/L HSA) against Reference Sample of 2.67. The specific activity; ErbB2 phosphorylation ELISA on MCF-7 cell lysates; Reference Sample (0 g/L HSA) was 6000 U/mg, the specific activity; ErbB2 phosphorylation ELISA on MCF-7 cell lysates; Sample A (0.5 g/L HSA) was 6900 U/mg and the specific activity; ErbB2 phosphorylation ELISA on MCF-7 cell lysates; Sample B (2 g/L HSA) was 14000 U/mg. It also gave a specific activity; ErbB2 phosphorylation ELISA on MCF-7 cell lysates; Sample C (8 g/L HSA) of 16000 U/mg.
